In the DeepSol protein solubility set:

Assay: soluble on expression in E. coli; label from the status in PepcDB or PDB records

Sequence	soluble on expression in E. coli
MSEEVIKFTSPRKQVKEEFKLIDTQKIADVRIQWFGKFTKNREKIMFCWKFFPGDKLQNEGIDFLVGHIKAYPHPTYNDFEPFEFDFNVNGAEHKETREYEYLTKNDWCCATYECELTPFRLYGNMFGASTKHDGVLVVEKKKLNVSKAFLSYHSDFFSDLFSREAHSKDIPIEGVTYFEFGLLISCIHPDHTVFPNDETVSKLLSLADRFSMRAVYRMVEHHLLHSSSNMGIREVIKTADQYGMKELMEKSISRITSTEKVMDLIQSAEFPELSAETKAKLMDCMAKMMR	not soluble
MGSDKIHHHHHHMKKSCKVSVHQLQIGNFVRLPVAWKDHPFLFSSFHIKQAAQIELIKNLGIAHVIVDLERSDVEPLSIDAVNPIKLPPAPEIHDLKNDMELYKAEQIEVQKKLRRDIHKTEQNFTRSVAMMRSMISKLRNRPLNAVDDAKDLVHSIVEQLLTSDNLVLHLMSDAKQDESIYYHSLNVAILSMLIAKEMEWSRSEIEAIGLSALFHDVGKLKIPPQILKKSTPWSAPELNFIKQHPLLGVELLKLAENFPPSALPAITNHHEFLDGTGYPKGLKEADLDQMSQLLAVVNEYDSLCYPNPQDKPMMPYAALGHLYKQYKTKLNQEYIGKIIKMLGIYPPGSVVELSSGQYAMVMSVNLQKLLCPKILVYDAQVPKDQAPIVDLELEGISIVRCLPPAALPEKVHEYLNPRERVSYYFGGDSRK	not soluble
MMRCPECSTEGWRVLPLTVGAHVKEGLWSKIKGDFYFCSLESCEVVYFNEQTVFRKGELKTRVGVKEREEPKPVCYCNRVTEKMLLEAAEKFGKEKAVEITGAGKGKWCVVTNPSGRCCHWHLERLGFPV	soluble
MGSDKIHHHHHHMGKVYVIGNFKGGVGKTKTVTMLAYESALQLGRKTLVIDLDPQGNATRVLAKTGDLAEITYTVTEAFQEGSLEPAITNISENLDLIPANTAFRNLTKILMTKFPSNEFDQINYLNTLLKPLKEKYDAIYIDVPPTISDFSDNAMLAADYCIIVLQTQELSLDGAQTYIAYMQYLADTYDNDLQVLGIIPCMLRPGGRVDNKVLEQAKELYGGNVLNTVVKYQERLKVYDVEGIKISHNYTGKADGWDVKAHKVFIDVLNELDQHQLVLEELEG	not soluble
MGCGFSRQHVVKTNVSSFDRELLDLKIQRDSLQQYEQRLSDSLKNYIKLARRLVAENQRQQALVVLQVKHALQKSIEKAQNMRFNLEQVLSEIELKQIETDYVLKLRTGTKLLQSIQKTLSIEEIEHLLEETKEAIEFQNKVTEVLGSFSLMEIDESCEEELEQLETAMFPPVPKRLEKTMTPQVTENMQVKSETAKEYSKQESILLPS	soluble
MGHKLAFNFNLEINGSDTHSTVDVYLDDSQIITFDGKDIRPTIPFMIGDEIFLPFYKNVFSEFFSLFRRVPTSTPYEDLTYFYECDYTDNKSTFDQFYLYNGEEYTVKTQEATNKNMWLTTSEFRLKKWFDGEDCIMHLRSLVRKMEDSKRNTG	not soluble
MQRLSPGEFKTLISKERKSHFITPFALVYKTFCDLGYDQKNSDYFLNNPSEYIIAMRKNCWKEFEPFEKEFTTRMLSYLIDEERIKDMSPYDAIRDFTMEYPTHIYDLALSNTQSRRSRAGKEFESILELLMMGAGIPVDVQGAIGKSFFQKNQIGKLVDLVMPGVVQYTSNKRNTMLISAKTTLRERWQEVPEEVNRTGIREMYLATLDDSFSEETINILYEANVVVVTTVENKNFKYKNNNRVLTFEDMLQSAMELSRKWNNVSYTDSEKEEIQQSILKQIEKYSDFPYVVNYYRNRLSALFD	soluble
MRFYIKTFGCQMNENDSEAMAGLLVKEGFTPASSPEEADVVIINTCAVRRKSEEKAYSELGQVLKLKKKKKIVVGVAGCVAEKEREKFLEKGADFVLGTRAVPRVTEAVKKALEGEKVALFEDHLDEYTHELPRIRTSRHHAWVTIIHGCDRFCTYCIVPYTRGRERSRPMADILEEVKKLAEQGYREVTFLGQNVDAYGKDLKDGSSLAKLLEEASKIEGIERIWFLTSYPTDFSDELIEVIAKNPKVAKSVHLPVQSGSNRILKLMNRRYTKEEYLALLEKIRSKVPEVAISSDIIVGFPTETEEDFMETVDLVEKAQFERLNLAIYSPREGTVAWKYYKDDVPYEEKVRRMQFLMNLQKRINRKLNERYRGKTVRIIVEAQAKNGLFYGRDIRNKIIAFEGEDWMIGRFADVKVEKITAGPLYGKVVWVEKTPSPVSSSE	soluble
